Entries after “also recorded” stand apart in the source; their conditions may differ.

These results are taken from US7279161B2, “Factor IX/factor IXa activating antibodies and antibody derivatives” (Baxter Aktiengesellschaft, priority 1999, dated 2007).

One assay addresses T1, factor IXa (Bos taurus, UniProt P00741).
T1 construct: purchased Chromogenix COATEST VIII:C/4
Briefly: Chromogenic FVIII assay (COATEST VIII:C/4) with the kit's FIXa/FX. It is filed as biochemical, bovine. The method, then: In order to assay the FVIII-like activity of anti-FIXa antibodies secreted by hybridoma cells, the commercially available test-kit COATEST VIII:C/4® (Chromogenix) was employed. The assay was done essentially as described by the manufacturer with the following modifications:
To allow high throughput screening, the assay was downscaled to microtiter plate format. Briefly, 25 μl aliquots of hybridoma supernatants were transferred to microtiter plate (Costar, #3598) wells and warmed to 37° C. Chromogenic substrate (S-2222), synthetic thrombin inhibitor (I-2581), factor (F) IXa and FX were reconstituted in sterile water and FIXa/FX was mixed with phospholipids according to the supplier's protocol. Per reaction, 50 μl of the phospholipid/FIXa/FX solution were combined with 25 μl CaCl2 (25 mM) and 50 μl of the substrate/inhibitor cocktail. To start the reaction, 125 μl of the premix were added to the hybridoma supernatant in the microtiter plates and incubated at 37° C. Absorbency at 405 nm and 490 nm of the samples was read at various times (30 min to 12 h) against a reagent blank (MLW, cell culture medium instead of hybridoma supernatant) in a Labsystems iEMS Reader MF™ microtiter plate reader. FVIII-like activity of the samples was calculated by comparing the absorbency of the samples against the absorbency of a diluted FVIII reference standard (IMMUNO AG #5T4AR00) using GENESIS™ software.
Several anti-FIX/FIXa antibody producing hybridoma clones were subcloned up to four times and the resulting monoclonal hybridoma cell line used to produce monoclonal antibody containing supernatant. IgG isotype antibodies derived from these supernatants were purified over affinity columns and dialyzed against TBS (see above). IgM antibodies were used as unpurified supernatant fractions. […] Absorbance at 405 nm and 490 nm of the samples was read at various times (5 min to 6 h) against a reagent blank (cell culture medium instead of hybridoma supernatant) in a Labsystems iEMS Reader MF™ microtiter plate reader using GENESIS™ software. […]

In the next assay the test system is FVIII deficient plasma. Briefly: aPTT based one stage clotting assay in FVIII deficient plasma. The assay is classed as biochemical, human. Particulars: for procoagulant activity: one-stage clotting assay in the presence of FIXa; for clotting time: 50 ng FIXa. In a few lines: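 Test samples preincubated 4 min with FVIII-deficient plasma and aPTT reagent (DAPTTIN or Pathromtin SL), optionally with 50 ng activated FIX; clotting started with 25 mM CaCl2. Read-out is clotting time from start to clot formation, set against FVIII, buffer or scrambled-peptide controls.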

The subject of the next assay is FVIII inhibitor plasma. Nature of the assay: aPTT based one stage clotting assay in FVIII inhibitor plasma. Conditions: inhibitor potency 400 BU/ml, 50 ng activated FIXa. The assay is classed as biochemical. The method, then: […] […] […] After a 4 minute incubation, the reaction was started by the addition of 100 μl CaCl2 (25 mM). To ensure equal conditions, the experiments employing FVIII deficient plasma and FVIII inhibitor plasma were done side by side.
To assay for the procoagulant activity of peptide A1/3 in FVIII inhibitor plasma the following experiment was carried out. We performed a standard aPTT based one stage clotting assay, but instead of FVIII deficient plasma we employed FVIII inhibitor plasma.

The next assay deals with FIX/FIXa. Briefly: Western Blot and ELISA reactivity with FIX/FIXa. It is filed as binding. The method, then: Factor IX and the two activated forms of FIX, FIXaα and FIXaβ (FIX/FIXa(α,β)) were diluted in TBS (25 mM Tris HCl, 150 mM NaCl, pH 7.5) to a final concentration of 2 μg/ml. Nunc Maxisorp ELISA plates were coated with 100 μl FIX/FIXa(α,β) solution according to standard procedures (4° C., overnight) and washed several times with TBST (TBS, 0.1% (v/v) Tween 20). 50 μl hybridoma supernatant was diluted 1:1 with 50 μl TBST/2% BSA and added to the coated ELISA plate. After an incubation period of 2 h at room temperature (RT), plates were washed 4 times with TBST and incubated (2 h, RT) with 100 μl/well of a 1:25000 dilution (in TBST/1% BSA) of an anti-mouse IgG (Fc-specific) peroxidase conjugated antibody (Sigma, #A-0168). Wells were washed 5 times with TBST and finally stained with 100 μl freshly prepared staining solution (10 ml 50 mM sodium citrate, pH 5 supplemented with 100 μl OPD (60 mg OPD/ml) and 10 μl 30% H2O2). The reaction was stopped by the addition of […] H2SO4 and the optical density recorded at 492 nm and 620 nm in a Labsystems iEMS Reader MF™ microtiter plate reader employing GENESIS™ software. […]
On the technique in general: In western blotting, separated proteins are transferred to a membrane and probed.

T1 sequence (P00741 47-192 limits assumed): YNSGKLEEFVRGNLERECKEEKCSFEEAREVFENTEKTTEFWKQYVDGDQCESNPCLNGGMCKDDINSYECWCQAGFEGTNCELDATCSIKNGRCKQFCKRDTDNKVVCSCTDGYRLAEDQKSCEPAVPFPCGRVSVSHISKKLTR
T1 sequence (P00741 228-462 limits assumed): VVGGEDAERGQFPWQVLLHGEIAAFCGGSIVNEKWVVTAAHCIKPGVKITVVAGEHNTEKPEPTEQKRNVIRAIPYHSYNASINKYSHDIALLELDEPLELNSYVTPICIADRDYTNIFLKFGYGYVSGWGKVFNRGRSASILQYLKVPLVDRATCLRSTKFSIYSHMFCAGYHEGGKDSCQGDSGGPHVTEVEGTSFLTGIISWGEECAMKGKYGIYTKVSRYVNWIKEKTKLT

B1: 198/A1: anti-FIX/FIXa monoclonal IgG, ECACC No. 99090924; scFv SEQ. ID. NOs. 87 and 88 (protein)
scFv: EVQLQESGGGLVKPGGSLKLSCAASGFIFSSYTMSWVRQTPEKRLEWVATISSGGSSTYYPDSVKGRFTISRDNAKNTLYLQMSSLKSEDTAMYHCTREGGGYYVNWYFDVWGAGTTLTVSSGGGGSGGRASGGGGSDIELTQSPASLAVSLGQRATISCRASESVDSYGKSFMHWYQQKPGQPPKLLIYRASNLESGIPARFSGSGSRTDFTLTINPVEADDVATYYCQQSNEDPLTFGAGTRLEIKR
modifications: scFv derived from IgG; Description of Artificial Sequence:scFv derived from hybridima cell line 198/A1
notes: anti-FIX/FIXa monoclonal IgG, ECACC No. 99090924; ID; NOs; 87 and 88
As for B1, in the assay with factor IXa (bovine FIXa and FX only, A1/3 24 μM), the “chromogenic FVIII-like activity (FXa generation) without human FIXa” value is “does not react with bovine FIXa and FX”. Moreover, the procoagulant activity entry in the assay on FVIII deficient plasma is reported as “show procoagulant activity”.

B2: 193/AD3: anti-FIX/FIXa monoclonal antibody, IgG isotype; scFv SEQ. ID. NOs. 81 and 82 (protein)
scFv: EVKLVESGPELKKPGETVKISCKASGYIFTNYGMNWVKQAPGKGLKWMGWINTYTGEPTYADDFKGRFAFSLETSASTAYLQINNLKNEDTATYFCALYGNSPKGFAYWGQGTLVTVSAGGGGSGGRASGGGGSDIQMTQSPKFLLVSAGDRVTITCKASQSVSNDVAWYQQKPGQSPKLLMYYASNRYTGVPDRFTGSGYGTDFTFTISTVQAEDLAVYFCQQDYGSPPTFGGGTKLEIKR
modifications: scFv derived from IgG; Description of Artificial Sequence:scFv from hybridoma cell line 193/AD3
notes: anti-FIX/FIXa monoclonal antibody, IgG isotype; ID; NOs; 81 and 82
Take B2: the “time course of FVIII-like activity (chromogenic substrate cleavage, OD 405 nm)” value in the assay with factor IXa (purified IgG (198/AC1/1 10 μg/ml) or unpurified IgM supernatant) is listed as “give rise to chromogenic substrate cleavage; also recorded: gave rise to chromogenic substrate cleavage”. Also, the clotting time in the assay with FVIII deficient plasma (0.23 μg AB) came out at 99.3 s; in the assay on FVIII deficient plasma (0.34 μg AB), 97.1 s; in the assay on FVIII deficient plasma (0.45 μg AB) it was 98.1 s; in the assay on FVIII deficient plasma (0.9 μg AB) it was 94.4 s; in the assay on FVIII deficient plasma (1.35 μg AB) it was 91.4 s; in the assay with FVIII deficient plasma (1.8 μg AB), 93.7 s. The clotting time was 93.1 s in the assay on FVIII deficient plasma (2.25 μg AB), 95.6 s in the assay on FVIII deficient plasma (4.5 μg AB) and 101.6 s in the assay on FVIII deficient plasma (9 μg AB). For the same molecule, the procoagulant activity result in the assay with FVIII deficient plasma was “procoagulant”. Moreover, the “reduction of the clotting time” value with FVIII deficient plasma (various amounts of antibody, 50 ng activated FIX) was “clear dose-dependent reduction of the clotting time; also recorded: reduction in the coagulation time”; with FVIII inhibitor plasma it was “clear dose-dependent reduction of the clotting time”.

B3: #8860: irrelevant monoclonal antibody, negative control (protein)
chain 1: EVQLQQSGPELVKPGASVKISCKASGYAFSSSWMNWVKQRPGQGLEWIGRIYPGNGDTNYNGKFKGKATLTADKSSSTAYMQLSSLTSVDSAVYFCADGNVYYYAMDYWGQGTSVTVSS
chain 2: QIVLTQSPASLAVSLGQRATISCRASKSVSTSGYSYMHWYQQKPGQPPKLLIYLASNLESGVPARFSGSGSGTDFTLNIHPVEEEDAATYYCQHSRELPRTFGGGTKLEIKR
For the molecule B3, the “reactivity with FIX/FIXa” value in the assay with FIX/FIXa is listed as “does not react with FIX/FIXa”.
